Test [1] deals with 2F8-HG (human). The test can be described thus: self-association of HG half-molecules; non-covalent nano-electrospray mass spectrometry.
In test [2] the target is 2F8-HG (human). The test can be described thus: self-association; non-covalent nano-electrospray mass spectrometry at 0.01-10 µM.

For 2F8-HG (antibody), the percentage molecules present as monomers in test [1] was found to be 15%. In test [2], this substance had a percentage monomeric at low concentrations of 100%.

Values taken from patent US20100325744A1.
